In the assay the target is recombinant human MMP-9 catalytic domain (residues 112-445) (human) (UniProt P14780).
Chain of UniProt P14780 (P14780 112-445): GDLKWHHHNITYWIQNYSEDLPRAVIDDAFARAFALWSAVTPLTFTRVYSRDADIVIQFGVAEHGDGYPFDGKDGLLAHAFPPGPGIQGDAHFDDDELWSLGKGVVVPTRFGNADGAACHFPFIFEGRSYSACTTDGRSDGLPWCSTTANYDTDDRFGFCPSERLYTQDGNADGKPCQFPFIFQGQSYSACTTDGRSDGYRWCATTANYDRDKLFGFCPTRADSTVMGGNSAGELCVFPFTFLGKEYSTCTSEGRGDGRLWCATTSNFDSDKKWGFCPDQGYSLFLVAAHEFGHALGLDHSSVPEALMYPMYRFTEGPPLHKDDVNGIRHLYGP

B1: VCAN p.1335-1347 FRET substrate (5-FAM-…-QXL) (peptide)
peptide: GRMSDLSMIGHPI
modifications: 5-FAM on the N-terminus, QXL quencher on the C-terminus (5-FAM-GRMSDLSMIGHPI-QXL)
Consider B1, for which the Kcat/Km of hydrolysis of the FRET-tagged peptide by the MMP-9 catalytic domain was found to be 8650 M⁻¹ s⁻¹.

The values are drawn from paper PMC6735613.
